# B1: Pistol ribozyme (parent)
# chain: GGGUCGUUGUUCCAUAAUCGCGUGGAUAUGGCACGCAAGUUUCUACCGGGCACCGUAAAUGUCCGACUGGAGCCGUUCGGGCGGCUAUAAACAGACCUCAGGCCCGAAGCGUGGCGGCACCUGCCGCCGGUGGUAAAAAAGAUCGGAAGAGCACACGUCU
# Variants of: B1
# Assay: aptazyme ON/OFF ratio, guanine; higher = stronger switching; co-transcriptional cleavage with and without guanine
row,Variant,aptazyme ON/OFF ratio
1,GGGUCGGCACAUCAUAAUCGCGUGGAUAUGGCACGCAAGUUUCUACCGGGCACCGUAAAUGUCCGACUGGAGCCGUUCGGGCGGCUAUAAACAGACCUCAGGCCCGAAGCGUGGCGGCACCUGCCGCCGGUGGUAAAAAAGAUCGGAAGAGCACACGUCU [U7G U8C G9A U10C U11A C12U],1.18
2,GGGUCGACAGGAGAUAAUCGCGUGGAUAUGGCACGCAAGUUUCUACCGGGCACCGUAAAUGUCCGACUGGAGCCGUUCGGGCGGCUAUAAACAGACCUCAGGCCCGAAGCGUGGCGGCACCUGCCGCCGGUGGUAAAAAAGAUCGGAAGAGCACACGUCU [U7A U8C G9A U10G U11G C12A C13G],1.15
3,GGGUCGAUAAAAUAUAAUCGCGUGGAUAUGGCACGCAAGUUUCUACCGGGCACCGUAAAUGUCCGACUGGAGCCGUUCGGGCGGCUAUAAACAGACCUCAGGCCCGAAGCGUGGCGGCACCUGCCGCCGGUGGUAAAAAAGAUCGGAAGAGCACACGUCU [U7A G9A U10A U11A C12A C13U],1.32
4,GGGUCGGCCGCGGAUAAUCGCGUGGAUAUGGCACGCAAGUUUCUACCGGGCACCGUAAAUGUCCGACUGGAGCCGUUCGGGCGGCUAUAAACAGACCUCAGGCCCGAAGCGUGGCGGCACCUGCCGCCGGUGGUAAAAAAGAUCGGAAGAGCACACGUCU [U7G U8C G9C U10G U11C C12G C13G],1.15
5,GGGUCGAAGCAAUAUAAUCGCGUGGAUAUGGCACGCAAGUUUCUACCGGGCACCGUAAAUGUCCGACUGGAGCCGUUCGGGCGGCUAUAAACAGACCUCAGGCCCGAAGCGUGGCGGCACCUGCCGCCGGUGGUAAAAAAGAUCGGAAGAGCACACGUCU [U7A U8A U10C U11A C12A C13U],1.16
6,GGGUCGGAACCGCAUAAUCGCGUGGAUAUGGCACGCAAGUUUCUACCGGGCACCGUAAAUGUCCGACUGGAGCCGUUCGGGCGGCUAUAAACAGACCUCAGGCCCGAAGCGUGGCGGCACCUGCCGCCGGUGGUAAAAAAGAUCGGAAGAGCACACGUCU [U7G U8A G9A U10C U11C C12G],1.09
7,GGGUCGCACCUCCAUAAUCGCGUGGAUAUGGCACGCAAGUUUCUACCGGGCACCGUAAAUGUCCGACUGGAGCCGUUCGGGCGGCUAUAAACAGACCUCAGGCCCGAAGCGUGGCGGCACCUGCCGCCGGUGGUAAAAAAGAUCGGAAGAGCACACGUCU [U7C U8A G9C U10C],2.31
8,GGGUCGACCUGUCAUAAUCGCGUGGAUAUGGCACGCAAGUUUCUACCGGGCACCGUAAAUGUCCGACUGGAGCCGUUCGGGCGGCUAUAAACAGACCUCAGGCCCGAAGCGUGGCGGCACCUGCCGCCGGUGGUAAAAAAGAUCGGAAGAGCACACGUCU [U7A U8C G9C U11G C12U],1.28
9,GGGUCGCCGGAUUAUAAUCGCGUGGAUAUGGCACGCAAGUUUCUACCGGGCACCGUAAAUGUCCGACUGGAGCCGUUCGGGCGGCUAUAAACAGACCUCAGGCCCGAAGCGUGGCGGCACCUGCCGCCGGUGGUAAAAAAGAUCGGAAGAGCACACGUCU [U7C U8C U10G U11A C12U C13U],1.21
10,GGGUCGAGUAGUAAUAAUCGCGUGGAUAUGGCACGCAAGUUUCUACCGGGCACCGUAAAUGUCCGACUGGAGCCGUUCGGGCGGCUAUAAACAGACCUCAGGCCCGAAGCGUGGCGGCACCUGCCGCCGGUGGUAAAAAAGAUCGGAAGAGCACACGUCU [U7A U8G G9U U10A U11G C12U C13A],1.08
11,GGGUCGCAGUAGGAUAAUCGCGUGGAUAUGGCACGCAAGUUUCUACCGGGCACCGUAAAUGUCCGACUGGAGCCGUUCGGGCGGCUAUAAACAGACCUCAGGCCCGAAGCGUGGCGGCACCUGCCGCCGGUGGUAAAAAAGAUCGGAAGAGCACACGUCU [U7C U8A U11A C12G C13G],1.16
12,GGGUCGUCAUGAGAUAAUCGCGUGGAUAUGGCACGCAAGUUUCUACCGGGCACCGUAAAUGUCCGACUGGAGCCGUUCGGGCGGCUAUAAACAGACCUCAGGCCCGAAGCGUGGCGGCACCUGCCGCCGGUGGUAAAAAAGAUCGGAAGAGCACACGUCU [U8C G9A U11G C12A C13G],1.29
13,GGGUCGUGGUGCAAUAAUCGCGUGGAUAUGGCACGCAAGUUUCUACCGGGCACCGUAAAUGUCCGACUGGAGCCGUUCGGGCGGCUAUAAACAGACCUCAGGCCCGAAGCGUGGCGGCACCUGCCGCCGGUGGUAAAAAAGAUCGGAAGAGCACACGUCU [U8G U11G C13A],1.04
14,GGGUCGCAUUGCGAUAAUCGCGUGGAUAUGGCACGCAAGUUUCUACCGGGCACCGUAAAUGUCCGACUGGAGCCGUUCGGGCGGCUAUAAACAGACCUCAGGCCCGAAGCGUGGCGGCACCUGCCGCCGGUGGUAAAAAAGAUCGGAAGAGCACACGUCU [U7C U8A G9U U11G C13G],1.02
15,GGGUCGCAUACUGAUAAUCGCGUGGAUAUGGCACGCAAGUUUCUACCGGGCACCGUAAAUGUCCGACUGGAGCCGUUCGGGCGGCUAUAAACAGACCUCAGGCCCGAAGCGUGGCGGCACCUGCCGCCGGUGGUAAAAAAGAUCGGAAGAGCACACGUCU [U7C U8A G9U U10A U11C C12U C13G],1.13
16,GGGUCGGACUGGGAUAAUCGCGUGGAUAUGGCACGCAAGUUUCUACCGGGCACCGUAAAUGUCCGACUGGAGCCGUUCGGGCGGCUAUAAACAGACCUCAGGCCCGAAGCGUGGCGGCACCUGCCGCCGGUGGUAAAAAAGAUCGGAAGAGCACACGUCU [U7G U8A G9C U11G C12G C13G],1.03
17,GGGUCGAAACAGUAUAAUCGCGUGGAUAUGGCACGCAAGUUUCUACCGGGCACCGUAAAUGUCCGACUGGAGCCGUUCGGGCGGCUAUAAACAGACCUCAGGCCCGAAGCGUGGCGGCACCUGCCGCCGGUGGUAAAAAAGAUCGGAAGAGCACACGUCU [U7A U8A G9A U10C U11A C12G C13U],1.1
18,GGGUCGUAUGGAUAUAAUCGCGUGGAUAUGGCACGCAAGUUUCUACCGGGCACCGUAAAUGUCCGACUGGAGCCGUUCGGGCGGCUAUAAACAGACCUCAGGCCCGAAGCGUGGCGGCACCUGCCGCCGGUGGUAAAAAAGAUCGGAAGAGCACACGUCU [U8A G9U U10G U11G C12A C13U],1.26

row,Variant,aptazyme ON/OFF ratio
1,GGGUCGUUAGCAUAUAAUCGCGUGGAUAUGGCACGCAAGUUUCUACCGGGCACCGUAAAUGUCCGACUGGAGCCGUUCGGGCGGCUAUAAACAGACCUCAGGCCCGAAGCGUGGCGGCACCUGCCGCCGGUGGUAAAAAAGAUCGGAAGAGCACACGUCU [G9A U10G U11C C12A C13U],1.25
2,GGGUCGCGCCGUGAUAAUCGCGUGGAUAUGGCACGCAAGUUUCUACCGGGCACCGUAAAUGUCCGACUGGAGCCGUUCGGGCGGCUAUAAACAGACCUCAGGCCCGAAGCGUGGCGGCACCUGCCGCCGGUGGUAAAAAAGAUCGGAAGAGCACACGUCU [U7C U8G G9C U10C U11G C12U C13G],1.09
3,GGGUCGCACUCCAAUAAUCGCGUGGAUAUGGCACGCAAGUUUCUACCGGGCACCGUAAAUGUCCGACUGGAGCCGUUCGGGCGGCUAUAAACAGACCUCAGGCCCGAAGCGUGGCGGCACCUGCCGCCGGUGGUAAAAAAGAUCGGAAGAGCACACGUCU [U7C U8A G9C U11C C13A],1.14
4,GGGUCGGCUUCUUAUAAUCGCGUGGAUAUGGCACGCAAGUUUCUACCGGGCACCGUAAAUGUCCGACUGGAGCCGUUCGGGCGGCUAUAAACAGACCUCAGGCCCGAAGCGUGGCGGCACCUGCCGCCGGUGGUAAAAAAGAUCGGAAGAGCACACGUCU [U7G U8C G9U U11C C12U C13U],1.49
5,GGGUCGAUGCAUGAUAAUCGCGUGGAUAUGGCACGCAAGUUUCUACCGGGCACCGUAAAUGUCCGACUGGAGCCGUUCGGGCGGCUAUAAACAGACCUCAGGCCCGAAGCGUGGCGGCACCUGCCGCCGGUGGUAAAAAAGAUCGGAAGAGCACACGUCU [U7A U10C U11A C12U C13G],1.14
6,GGGUCGCCGUAAUAUAAUCGCGUGGAUAUGGCACGCAAGUUUCUACCGGGCACCGUAAAUGUCCGACUGGAGCCGUUCGGGCGGCUAUAAACAGACCUCAGGCCCGAAGCGUGGCGGCACCUGCCGCCGGUGGUAAAAAAGAUCGGAAGAGCACACGUCU [U7C U8C U11A C12A C13U],1.31
7,GGGUCGGCGUCCAAUAAUCGCGUGGAUAUGGCACGCAAGUUUCUACCGGGCACCGUAAAUGUCCGACUGGAGCCGUUCGGGCGGCUAUAAACAGACCUCAGGCCCGAAGCGUGGCGGCACCUGCCGCCGGUGGUAAAAAAGAUCGGAAGAGCACACGUCU [U7G U8C U11C C13A],1.3
8,GGGUCGCGUUGUUAUAAUCGCGUGGAUAUGGCACGCAAGUUUCUACCGGGCACCGUAAAUGUCCGACUGGAGCCGUUCGGGCGGCUAUAAACAGACCUCAGGCCCGAAGCGUGGCGGCACCUGCCGCCGGUGGUAAAAAAGAUCGGAAGAGCACACGUCU [U7C U8G G9U U11G C12U C13U],1.29
9,GGGUCGUCUGUGGAUAAUCGCGUGGAUAUGGCACGCAAGUUUCUACCGGGCACCGUAAAUGUCCGACUGGAGCCGUUCGGGCGGCUAUAAACAGACCUCAGGCCCGAAGCGUGGCGGCACCUGCCGCCGGUGGUAAAAAAGAUCGGAAGAGCACACGUCU [U8C G9U U10G C12G C13G],1.21
10,GGGUCGAACCGCUAUAAUCGCGUGGAUAUGGCACGCAAGUUUCUACCGGGCACCGUAAAUGUCCGACUGGAGCCGUUCGGGCGGCUAUAAACAGACCUCAGGCCCGAAGCGUGGCGGCACCUGCCGCCGGUGGUAAAAAAGAUCGGAAGAGCACACGUCU [U7A U8A G9C U10C U11G C13U],1.05
11,GGGUCGGCUGCAUAUAAUCGCGUGGAUAUGGCACGCAAGUUUCUACCGGGCACCGUAAAUGUCCGACUGGAGCCGUUCGGGCGGCUAUAAACAGACCUCAGGCCCGAAGCGUGGCGGCACCUGCCGCCGGUGGUAAAAAAGAUCGGAAGAGCACACGUCU [U7G U8C G9U U10G U11C C12A C13U],1.37
12,GGGUCGGGUAAUGAUAAUCGCGUGGAUAUGGCACGCAAGUUUCUACCGGGCACCGUAAAUGUCCGACUGGAGCCGUUCGGGCGGCUAUAAACAGACCUCAGGCCCGAAGCGUGGCGGCACCUGCCGCCGGUGGUAAAAAAGAUCGGAAGAGCACACGUCU [U7G U8G G9U U10A U11A C12U C13G],1.11
13,GGGUCGUUCACAGAUAAUCGCGUGGAUAUGGCACGCAAGUUUCUACCGGGCACCGUAAAUGUCCGACUGGAGCCGUUCGGGCGGCUAUAAACAGACCUCAGGCCCGAAGCGUGGCGGCACCUGCCGCCGGUGGUAAAAAAGAUCGGAAGAGCACACGUCU [G9C U10A U11C C12A C13G],1.18
14,GGGUCGUCACGGAAUAAUCGCGUGGAUAUGGCACGCAAGUUUCUACCGGGCACCGUAAAUGUCCGACUGGAGCCGUUCGGGCGGCUAUAAACAGACCUCAGGCCCGAAGCGUGGCGGCACCUGCCGCCGGUGGUAAAAAAGAUCGGAAGAGCACACGUCU [U8C G9A U10C U11G C12G C13A],1.42
15,GGGUCGAACAAACAUAAUCGCGUGGAUAUGGCACGCAAGUUUCUACCGGGCACCGUAAAUGUCCGACUGGAGCCGUUCGGGCGGCUAUAAACAGACCUCAGGCCCGAAGCGUGGCGGCACCUGCCGCCGGUGGUAAAAAAGAUCGGAAGAGCACACGUCU [U7A U8A G9C U10A U11A C12A],1.13
16,GGGUCGGAUAUUUAUAAUCGCGUGGAUAUGGCACGCAAGUUUCUACCGGGCACCGUAAAUGUCCGACUGGAGCCGUUCGGGCGGCUAUAAACAGACCUCAGGCCCGAAGCGUGGCGGCACCUGCCGCCGGUGGUAAAAAAGAUCGGAAGAGCACACGUCU [U7G U8A G9U U10A C12U C13U],1.07
17,GGGUCGCAAACCAAUAAUCGCGUGGAUAUGGCACGCAAGUUUCUACCGGGCACCGUAAAUGUCCGACUGGAGCCGUUCGGGCGGCUAUAAACAGACCUCAGGCCCGAAGCGUGGCGGCACCUGCCGCCGGUGGUAAAAAAGAUCGGAAGAGCACACGUCU [U7C U8A G9A U10A U11C C13A],1.03
18,GGGUCGGCAAGCUAUAAUCGCGUGGAUAUGGCACGCAAGUUUCUACCGGGCACCGUAAAUGUCCGACUGGAGCCGUUCGGGCGGCUAUAAACAGACCUCAGGCCCGAAGCGUGGCGGCACCUGCCGCCGGUGGUAAAAAAGAUCGGAAGAGCACACGUCU [U7G U8C G9A U10A U11G C13U],1.23

# — the RNAGym collection of RNA variant scans (doi:10.1021/acssynbio.7b00057)
